Paper PMC6582323 (Nucleic Acids Research, 2019)

Key:
[1] = molecular target: T1, Cyanothece PCC7424 McdA(D38A) (Cyanothece sp. PCC 7424, UniProt B7KMS4 1-258, D38A); test: fluorescence polarisation
T1 sequence (looked up): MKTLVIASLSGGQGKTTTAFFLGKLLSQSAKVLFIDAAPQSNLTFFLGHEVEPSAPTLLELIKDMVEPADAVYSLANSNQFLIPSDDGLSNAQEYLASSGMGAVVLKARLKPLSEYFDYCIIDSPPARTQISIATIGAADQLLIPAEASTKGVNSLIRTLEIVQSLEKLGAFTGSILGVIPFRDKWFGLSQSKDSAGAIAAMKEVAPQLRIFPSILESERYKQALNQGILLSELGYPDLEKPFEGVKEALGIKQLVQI

crystal structure = molecular target: the molecule itself; test: crystal structure

Kd [1]: 1100 nM
B1: Cyanothece PCC7424 McdB (wild type) (natural protein, Cyanothece sp. PCC 7424, UniProt B7KMS5 1-156, looked up)
chain: MSNNALDRLINKQKPKVPPRNDVVSESVSNDIKTQGQQELNTSLPPSDTKATPEEMPTSHESETSLSQDQKPKLSPDTFETVRNTIRIESEVDESLRQLCHEERITKETWLEAAYLYLCEKPEELAQVIQLAQERLSQRKAIADYKRAKTMQERFL
stoichiometry N (crystal structure): 2
